Laboratory results published in the supplement of paper PMC11908140.

B1: library; numbered along this chain (parent)
chain: MRKPRAAVGSGHRKQAASQEGRQKHAKNNSQAKPSACDGLARQPEEVVLQASVSSYHLFRDVAEVTAFRGSLLSWYDQEKRDLPWRRRAEDEMDLDRRAYAVWVSEVMLQQTQVATVINYYTGWMQKWPTLQDLASASLEEVNQLWAGLGYYSRGRRLQEGARKVVEELGGHMPRTAETLQQLLPGVGRYTAGAIASIAFGQATGVVDGNVARVLCRVRAIGADPSSTLVSQQLWGLAQQLVDPARPGDFNQAAMELGATVCTPQRPLCSQCPVESLCRARQRVEQEQLLASGSLSGSPDVEECAPNTGQCHLCLPPSEPWDQTLGVVNFPRKASRKPPREESSATCVLEQPGALGAQILLVQRPNSGLLAGLWEFPSVTWEPSEQLQRKALLQELQRWAGPLPATHLRHLGEVVHTFSHIKLTYQVYGLALEGQTPVTTVPPGARWLTQEEFHTAAVSTAMKKVFRVYQGQQPGTCMGSKRSQVSSPCSRKKPRMGQQVLDNFFRSHISTDAHSLNSAAQ

Variants of: B1
Experiment: 8OG:A repair function score (normalized; synonymous = 0, nonsense = -1) (normalized log-likelihood score); higher = more repair activity (WT-like)
Details: with 8OG:A DNA repair reporter (GFP) in HEK-293 MUTYH KO cells
Procedure, shortened: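 Lentiviral MUTYH cDNA NNN codon-scan libraries were expressed in MUTYH knockout HEK-293 cells with 10 pg/ml doxycycline, and the cells received an 8OG:A GFP repair reporter together with mCherry. At 72 h, viable mCherry+ cells went into GFP+ (repair) or GFP− bins, three replicates per tile, before tile amplicons were sequenced. A repair function score was then built from per-tile Rosace fitness scores, anchored on the synonymous and nonsense distributions. Synonymous medians sat at 0 and nonsense at -1, and variants under 300 counts per million at the start were left out.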
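Further: cells sorted at 72 h after reporter transfection.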

Row | Variant | 8OG:A repair function score
1 | MRKPRAAVGSGHRKQAASQEGRQKHAKNNSQAKPSACDGLARQPEEVVLQASVSSYHLFRDVAEVTAFRGSLLSWYDQEKRDLPWRRRAEDEMDLDRRAYAVWVSEVMLQQTQVATVINYYTGWMQKWPTLQDLASASLEEVNQLWAGLGYYSRGRRLQEGARKVVEELGGHMRRTAETLQQLLPGVGRYTAGAIASIAFGQATGVVDGNVARVLCRVRAIGADPSSTLVSQQLWGLAQQLVDPARPGDFNQAAMELGATVCTPQRPLCSQCPVESLCRARQRVEQEQLLASGSLSGSPDVEECAPNTGQCHLCLPPSEPWDQTLGVVNFPRKASRKPPREESSATCVLEQPGALGAQILLVQRPNSGLLAGLWEFPSVTWEPSEQLQRKALLQELQRWAGPLPATHLRHLGEVVHTFSHIKLTYQVYGLALEGQTPVTTVPPGARWLTQEEFHTAAVSTAMKKVFRVYQGQQPGTCMGSKRSQVSSPCSRKKPRMGQQVLDNFFRSHISTDAHSLNSAAQ [P174R] | -0.877
2 | MRKPRAAVGSGHRKQAASQEGRQKHAKNNSQAKPSACDGLARQPEEVVLQASVSSYHLFRDVAEVTAFRGSLLSWYDQEKRDLPWRRRAEDEMDLDRRAYAVWVSEVMLQQTQVATVINYYTGWMQKWPTLQDLASASLEEVNQLWAGLGYYSRGRRLQEGARKVVEELGGHMVRTAETLQQLLPGVGRYTAGAIASIAFGQATGVVDGNVARVLCRVRAIGADPSSTLVSQQLWGLAQQLVDPARPGDFNQAAMELGATVCTPQRPLCSQCPVESLCRARQRVEQEQLLASGSLSGSPDVEECAPNTGQCHLCLPPSEPWDQTLGVVNFPRKASRKPPREESSATCVLEQPGALGAQILLVQRPNSGLLAGLWEFPSVTWEPSEQLQRKALLQELQRWAGPLPATHLRHLGEVVHTFSHIKLTYQVYGLALEGQTPVTTVPPGARWLTQEEFHTAAVSTAMKKVFRVYQGQQPGTCMGSKRSQVSSPCSRKKPRMGQQVLDNFFRSHISTDAHSLNSAAQ [P174V] | -0.797
3 | MRKPRAAVGSGHRKQAASQEGRQKHAKNNSQAKPSACDGLARQPEEVVLQASVSSYHLFRDVAEVTAFRGSLLSWYDQEKRDLPWRRRAEDEMDLDRRAYAVWVSEVMLQQTQVATVINYYTGWMQKWPTLQDLASASLEEVNQLWAGLGYYSRGRRLQEGARKVVEELGGHMTRTAETLQQLLPGVGRYTAGAIASIAFGQATGVVDGNVARVLCRVRAIGADPSSTLVSQQLWGLAQQLVDPARPGDFNQAAMELGATVCTPQRPLCSQCPVESLCRARQRVEQEQLLASGSLSGSPDVEECAPNTGQCHLCLPPSEPWDQTLGVVNFPRKASRKPPREESSATCVLEQPGALGAQILLVQRPNSGLLAGLWEFPSVTWEPSEQLQRKALLQELQRWAGPLPATHLRHLGEVVHTFSHIKLTYQVYGLALEGQTPVTTVPPGARWLTQEEFHTAAVSTAMKKVFRVYQGQQPGTCMGSKRSQVSSPCSRKKPRMGQQVLDNFFRSHISTDAHSLNSAAQ [P174T] | -0.922
4 | MRKPRAAVGSGHRKQAASQEGRQKHAKNNSQAKPSACDGLARQPEEVVLQASVSSYHLFRDVAEVTAFRGSLLSWYDQEKRDLPWRRRAEDEMDLDRRAYAVWVSEVMLQQTQVATVINYYTGWMQKWPTLQDLASASLEEVNQLWAGLGYYSRGRRLQEGARKVVEELGGHMQRTAETLQQLLPGVGRYTAGAIASIAFGQATGVVDGNVARVLCRVRAIGADPSSTLVSQQLWGLAQQLVDPARPGDFNQAAMELGATVCTPQRPLCSQCPVESLCRARQRVEQEQLLASGSLSGSPDVEECAPNTGQCHLCLPPSEPWDQTLGVVNFPRKASRKPPREESSATCVLEQPGALGAQILLVQRPNSGLLAGLWEFPSVTWEPSEQLQRKALLQELQRWAGPLPATHLRHLGEVVHTFSHIKLTYQVYGLALEGQTPVTTVPPGARWLTQEEFHTAAVSTAMKKVFRVYQGQQPGTCMGSKRSQVSSPCSRKKPRMGQQVLDNFFRSHISTDAHSLNSAAQ [P174Q] | -0.827
5 | MRKPRAAVGSGHRKQAASQEGRQKHAKNNSQAKPSACDGLARQPEEVVLQASVSSYHLFRDVAEVTAFRGSLLSWYDQEKRDLPWRRRAEDEMDLDRRAYAVWVSEVMLQQTQVATVINYYTGWMQKWPTLQDLASASLEEVNQLWAGLGYYSRGRRLQEGARKVVEELGGHMWRTAETLQQLLPGVGRYTAGAIASIAFGQATGVVDGNVARVLCRVRAIGADPSSTLVSQQLWGLAQQLVDPARPGDFNQAAMELGATVCTPQRPLCSQCPVESLCRARQRVEQEQLLASGSLSGSPDVEECAPNTGQCHLCLPPSEPWDQTLGVVNFPRKASRKPPREESSATCVLEQPGALGAQILLVQRPNSGLLAGLWEFPSVTWEPSEQLQRKALLQELQRWAGPLPATHLRHLGEVVHTFSHIKLTYQVYGLALEGQTPVTTVPPGARWLTQEEFHTAAVSTAMKKVFRVYQGQQPGTCMGSKRSQVSSPCSRKKPRMGQQVLDNFFRSHISTDAHSLNSAAQ [P174W] | -1.14
6 | MRKPRAAVGSGHRKQAASQEGRQKHAKNNSQAKPSACDGLARQPEEVVLQASVSSYHLFRDVAEVTAFRGSLLSWYDQEKRDLPWRRRAEDEMDLDRRAYAVWVSEVMLQQTQVATVINYYTGWMQKWPTLQDLASASLEEVNQLWAGLGYYSRGRRLQEGARKVVEELGGHMSRTAETLQQLLPGVGRYTAGAIASIAFGQATGVVDGNVARVLCRVRAIGADPSSTLVSQQLWGLAQQLVDPARPGDFNQAAMELGATVCTPQRPLCSQCPVESLCRARQRVEQEQLLASGSLSGSPDVEECAPNTGQCHLCLPPSEPWDQTLGVVNFPRKASRKPPREESSATCVLEQPGALGAQILLVQRPNSGLLAGLWEFPSVTWEPSEQLQRKALLQELQRWAGPLPATHLRHLGEVVHTFSHIKLTYQVYGLALEGQTPVTTVPPGARWLTQEEFHTAAVSTAMKKVFRVYQGQQPGTCMGSKRSQVSSPCSRKKPRMGQQVLDNFFRSHISTDAHSLNSAAQ [P174S] | -0.753
